Assay results: US20210403527A1 (Regeneron, published 2021)
Numbering of substitutions follows the chain as printed. Values belong to the binder of their own block, whether it stands above or below them.

Columns and labels:
Test in all cases: cell-based or functional assay
[1] = molecular target: HLA-A2/NY-ESO-1 (157-165) complex on cells (human)
[2] = molecular target: HLA-A2/NY-ESO-1 (157-165) complex on cells (human); remark: listed apart in the source
[3] = molecular target: single chain HLA-A2 presenting an NY-ESO-1 (157-165) peptide, overexpressed on IM9 cells

B2: composite TCR 001 (human variable domains, mouse constant domains) (TCR, V domains shown)
V domain 1: DAKTTQPNSMESNEEEPVHLPCNHSTISGTDYIHWYRQLPSQGPEYVIHGLTSNVNNRMASLAIAEDRKSSTLILHRATLRDAAVYYCILRPDSWGKFQFGAGTQVVVTP
V domain 2: NAGVTQTPKFRILKIGQSMTLQCAQDMNHNYMYWYRQDPGMGLKLIYYSVGAGITDKGEVPNGYNVSRSTTEYFPLRLELAAPSQTSVYFCASSYSGGSPLHFGNGTRLTVTE
- percent cytotoxicity (calcein release), IM-9 target cells, T cell:target cell ratio 0.78, Mean [2]: 8.3%
- percent cytotoxicity (calcein release), IM-9 target cells, T cell:target cell ratio 1.56, Mean [2]: 16.2%
- percent cytotoxicity (calcein release), IM-9 target cells, T cell:target cell ratio 3.125, Mean [2]: 28.9%
- percent cytotoxicity (calcein release), IM-9 target cells, T cell:target cell ratio 6.25, Mean [2]: 44.4%
- percent cytotoxicity (calcein release), IM-9 target cells, T cell:target cell ratio 12.5, Mean [2]: 55.6%
- percent cytotoxicity (calcein release), IM-9 target cells, T cell:target cell ratio 25, Mean [2]: 65.4%
- percent cytotoxicity (calcein release), IM-9 target cells, T cell:target cell ratio 50, Mean [2]: 72.6%
- percent cytotoxicity (calcein release), IM-9++ target cells, T cell:target cell ratio 0.78, Mean [3]: 13.3%
- percent cytotoxicity (calcein release), IM-9++ target cells, T cell:target cell ratio 1.56, Mean [3]: 25.6%
- percent cytotoxicity (calcein release), IM-9++ target cells, T cell:target cell ratio 3.125, Mean [3]: 43.6%
- percent cytotoxicity (calcein release), IM-9++ target cells, T cell:target cell ratio 6.25, Mean [3]: 57.3%
- percent cytotoxicity (calcein release), IM-9++ target cells, T cell:target cell ratio 12.5, Mean [3]: 65.9%
- percent cytotoxicity (calcein release), IM-9++ target cells, T cell:target cell ratio 25, Mean [3]: 68.7%
- percent cytotoxicity (calcein release), IM-9++ target cells, T cell:target cell ratio 50, Mean [3]: 70%

B4: TCR188 (TCR, V domains shown)
V domain 1: DAKTTQPNSMESNEEEPVHLPCNHSTISGTDYIHWYRQLPSQGPEYVIHGLTSNVNNRMASLAIAEDRKSSTLILHRATLRDAAVYYCILNTGTASKLTFGTGTRLQVTL
V domain 2: GAVVSQHPSWVICKSGTSVKIECRSLDFQATTMFWYRQFPKQSLMLMATSNEGSKATYEQGVEKDKFLINHASLTLSTLTVTSAHPEDSSFYICSAKEGTEAFFGQGTRLTVV
- Signal to Noise (S/N) ratio (RLU to peptide pulsed APCs divided by RLU to non-pulsed APCs), AP-1 luciferase reporter T cells [1]: 5.1 ratio

Results, then the binder that gave them:

- Signal to Noise (S/N) ratio (RLU to peptide pulsed APCs divided by RLU to non-pulsed APCs), AP-1 luciferase reporter T cells [1]: 11.2 ratio
B1: TCR063 (TCR, V domains shown)
V domain 1: QKEVEQNSGPLSVPEGAIASLNCTYSDRGSQSFFWYRQYSGKSPELIMSIYSNGDKEDGRFTAQLNKASQYVSLLIRDSQPSDSATYLCAVNILASGGSYIPTFGRGTSLIVHP
V domain 2: ETGVTQTPRHLVMGMTNKKSLKCEQHLGHNAMYWYKQSAKKPLELMFVYNFKEQTENNSVPSRFSPECPNSSHLFLHLHTLQPEDSALYLCASSHGTGYNYGYTFGSGTRLTVV

- Signal to Noise (S/N) ratio (RLU to peptide pulsed APCs divided by RLU to non-pulsed APCs), AP-1 luciferase reporter T cells [1]: 25.4 ratio
B3: TCR001 (TCR, V domains shown)
V domain 1: B2 V domain 1
V domain 2: NAGVTQTPKFRILKIGQSMTLQCAQDMNHNYMYWYRQDPGMGLKLIYYSVGAGITDKGEVPNGYNVSRSTTEYFPLRLELAAPSQTSVYFCASSYSGGSPLHFGNGTRLTVT

- Signal to Noise (S/N) ratio (RLU to peptide pulsed APCs divided by RLU to non-pulsed APCs), AP-1 luciferase reporter T cells [1]: 15.5 ratio
B5: TCR050 (TCR, V domains shown)
V domain 1: DAKTTQPNSMESNEEEPVHLPCNHSTISGTDYIHWYRQLPSQGPEYVIHGLTSNVNNRMASLAIAEDRKSSTLILHRATLRDAAVYYCILREGNNDMRFGAGTRLTVKP
V domain 2: B3 V domain 2 with Y95W, S96T, G97D, G98N, S99Q, L101Q, N105D, T110S, V111I, T112L
